{"source": "patent US20080241130A1", "about": "(published 2008)", "binders": {"B1": {"name": "human IL-17F (ligand)", "chain": "RKIPKVGHTFFQKPESCPPVPGGSMKLDIGIINENQRVSMSRNIESRSTSPWNYTVTWDPNRYPSEVVQAQCRNLGCINAQGKEDISMNSVPIQQETLVVRRKHQGCSVSFQLEKVLVTVGCTCVTPVIHHVQ", "modifications": "biotinylated in the ELISA (FluoReporter Mini-biotin-XX kit); sites not stated", "notes": "Homodimer; also called hIL-17F"}}, "key": {"[1]": {"target": "T1, human IL-17RC.Fc (human)", "T1 construct": "also called hIL-17RC.Fc", "T1 sequence (chain, as listed by the source limits assumed)": "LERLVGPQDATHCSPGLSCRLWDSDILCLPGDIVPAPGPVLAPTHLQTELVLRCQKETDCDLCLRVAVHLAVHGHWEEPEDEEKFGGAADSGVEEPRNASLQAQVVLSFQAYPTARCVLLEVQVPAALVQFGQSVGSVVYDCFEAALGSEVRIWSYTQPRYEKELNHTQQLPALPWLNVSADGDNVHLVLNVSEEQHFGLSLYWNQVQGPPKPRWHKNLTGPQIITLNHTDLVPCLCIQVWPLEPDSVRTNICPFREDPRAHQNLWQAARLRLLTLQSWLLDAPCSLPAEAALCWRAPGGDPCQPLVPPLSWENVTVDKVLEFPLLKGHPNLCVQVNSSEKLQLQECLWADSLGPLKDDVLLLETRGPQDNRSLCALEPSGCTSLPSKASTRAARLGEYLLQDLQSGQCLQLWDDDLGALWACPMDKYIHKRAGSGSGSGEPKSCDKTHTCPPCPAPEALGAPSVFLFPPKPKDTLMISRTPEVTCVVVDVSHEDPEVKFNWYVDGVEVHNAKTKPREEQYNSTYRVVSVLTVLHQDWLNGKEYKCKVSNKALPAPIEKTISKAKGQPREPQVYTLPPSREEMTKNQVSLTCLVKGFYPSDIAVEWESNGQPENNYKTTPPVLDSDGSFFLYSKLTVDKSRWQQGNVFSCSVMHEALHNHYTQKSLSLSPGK", "experiment": "indirect sandwich ELISA: IL-17RC.Fc captured on goat anti-human IgG-Fc, biotinylated cytokine titrated, Poly-HRP streptavidin", "procedure": "(§1) Binding of human IL-17F, hIL-17A or hIL-17F/IL-17A to human IL-17R.Fc (hIL-17R.Fc) and IL-17RC.Fc (hIL-17RC.Fc) was determined by indirect sandwich ELISA. ELISA plates (Costar, Cambridge Mass.) were coated overnight with 10 μg/ml goat anti-human IgG-Fc (Bethyl Laboratories, Montgomery, Tex.). Human IL-17R.Fc or hIL17-RC.Fc was then loaded at 6 ng/ml and 30 ng/ml, respectively, for 3 hours, followed by serial dilutions of biotinylated IL-17A, IL-17F or IL-17F/IL-17A for 2 hours. The plate was developed with Poly-HRP Streptavidin (Pierce Biotechnology, Rockford, Ill.) and TMB Substrate (KPL Labs, Gaithersburg, Md.).\n(§2) The binding of hIL-17F, hIL-17A or hIL-17F/IL-17A to hIL-17R.Fc and/or hIL-17RC.Fc was evaluated by indirect sandwich ELISA. All three cytokines bound to hIL-17RC.Fc with approximately the same EC₅₀ of 18-25 ng/ml (FIG. 1B). However, the EC₅₀ for the three cytokines were different for binding to hIL-17R.Fc. The tightest binding occurred between hIL-17A and hIL-17R.Fc with an EC₅₀ of 25 ng/ml. Human IL-17F bound weakly to hIL-17R.Fc with an EC₅₀ greater than 2000 ng/ml."}, "[2]": {"target": "T2, human IL-17R.Fc (human)", "T2 construct": "also called hIL-17R.Fc; IL-17RA.Fc", "T2 sequence (chain, as listed by the source limits assumed)": "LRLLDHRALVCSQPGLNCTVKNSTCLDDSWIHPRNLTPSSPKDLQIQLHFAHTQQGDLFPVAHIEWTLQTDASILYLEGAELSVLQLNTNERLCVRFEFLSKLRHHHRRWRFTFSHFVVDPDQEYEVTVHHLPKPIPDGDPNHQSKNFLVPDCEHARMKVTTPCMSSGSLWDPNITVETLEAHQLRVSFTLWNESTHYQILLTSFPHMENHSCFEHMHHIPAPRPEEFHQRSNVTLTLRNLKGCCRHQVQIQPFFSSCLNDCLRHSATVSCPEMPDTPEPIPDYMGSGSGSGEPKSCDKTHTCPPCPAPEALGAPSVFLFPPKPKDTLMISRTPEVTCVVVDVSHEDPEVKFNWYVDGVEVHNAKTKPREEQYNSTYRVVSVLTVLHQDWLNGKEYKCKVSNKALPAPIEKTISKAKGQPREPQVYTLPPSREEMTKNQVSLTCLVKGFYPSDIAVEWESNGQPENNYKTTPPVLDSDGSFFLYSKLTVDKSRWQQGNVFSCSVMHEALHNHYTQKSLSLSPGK", "experiment": "indirect sandwich ELISA; receptor.Fc captured on goat anti-human IgG-Fc, biotinylated cytokine titrated", "procedure": "as §1, §2"}}}
{"binder": "B1", "values": [{"measurement": "EC50 (read off the curve)", "setting": "[1]", "result": "~0.02", "unit": "µg/mL"}, {"measurement": "EC50", "setting": "[2]", "result": "> 2", "unit": "µg/mL"}]}
